This passage reports Log IC50, IC50 and 125I-CXCL12 tracer binding, % of ACKR3 (the pair that is blocked) results from PMC5777261 (The Journal of Biological Chemistry, 2017).

Among the targets are ACKR3 D141N-YFP (UniProt P25106); ACKR3 D90N-YFP (UniProt P25106); ACKR3 N127D-YFP (UniProt P25106); ACKR3 N127K-YFP (UniProt P25106); ACKR3 N127S-YFP (UniProt P25106); ACKR3 R142A-YFP (UniProt P25106); ACKR3 Y143A-YFP (UniProt P25106); ACKR3 Y315A-YFP (UniProt P25106).
Experiment in all cases: radioligand binding; HEK293 cells expressing ACKR3-YFP or mutants, pretreated 5 min at 37 °C with 100 μM phenylarsine oxide; 50 pM 125I-CXCL12 tracer in 50 mM HEPES pH 7.4, 5 mM MgCl2, 1 mM CaCl2, 0.2% BSA, with or without unlabeled CXCL12 or CXCL11, 30 min at 37 °C; bound label counted in a γ counter; IC50 taken as proxy for ligand affinity
For experiment [1], the target named is ACKR3-YFP (wildtype ACKR3 fused C-terminally to YFP) (UniProt P25106).
Chain of ACKR3-YFP (wildtype ACKR3 fused C-terminally to YFP) (P25106 whole entry, the tested form may be a part): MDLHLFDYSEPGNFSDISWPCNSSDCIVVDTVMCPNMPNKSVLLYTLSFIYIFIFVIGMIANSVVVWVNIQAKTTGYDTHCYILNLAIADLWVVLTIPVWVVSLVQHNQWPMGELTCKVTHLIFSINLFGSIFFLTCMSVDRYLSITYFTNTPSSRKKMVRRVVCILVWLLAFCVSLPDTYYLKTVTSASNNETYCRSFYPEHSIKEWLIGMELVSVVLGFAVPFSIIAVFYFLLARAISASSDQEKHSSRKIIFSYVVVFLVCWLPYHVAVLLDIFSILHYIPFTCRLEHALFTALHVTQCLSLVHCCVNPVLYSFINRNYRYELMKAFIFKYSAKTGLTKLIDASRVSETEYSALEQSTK

Chain of ACKR3 N127D-YFP (P25106 whole entry N127D): as the sequence (P25106 whole entry, the tested form may be a part) above, with N127D counted along it
Chain of CXCL12 (unlabeled recombinant chemokine) (P48061 22-93): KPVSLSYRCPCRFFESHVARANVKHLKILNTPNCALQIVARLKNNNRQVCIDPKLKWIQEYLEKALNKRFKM
Chain of ^125I-CXCL12 radiolabel tracer (P48061 22-93): as above
Chain of ACKR3 Y315A-YFP (P25106 whole entry Y315A): as the sequence (P25106 whole entry, the tested form may be a part) above, with Y315A counted along it
Chain of ACKR3 D90N-YFP (P25106 whole entry D90N): as the sequence (P25106 whole entry, the tested form may be a part) above, with D90N counted along it
Chain of ACKR3 Y143A-YFP (P25106 whole entry Y143A): as the sequence (P25106 whole entry, the tested form may be a part) above, with Y143A counted along it
Chain of ACKR3 N127K-YFP (P25106 whole entry N127K): as the sequence (P25106 whole entry, the tested form may be a part) above, with N127K counted along it
Chain of ACKR3 N127S-YFP (P25106 whole entry N127S): as the sequence (P25106 whole entry, the tested form may be a part) above, with N127S counted along it
Chain of ACKR3 R142A-YFP (P25106 whole entry R142A): as the sequence (P25106 whole entry, the tested form may be a part) above, with R142A counted along it
Chain of ACKR3 D141N-YFP (P25106 whole entry D141N): as the sequence (P25106 whole entry, the tested form may be a part) above, with D141N counted along it

For the substance “CXCL12 (unlabeled recombinant chemokine) (from UniProt P48061 22-93) (ligand)”, the Log IC50 was -9.1 with ACKR3 D141N-YFP; -7.9 with ACKR3 D90N-YFP; -8.2 in the experiment with ACKR3 N127D-YFP; -8.1 with ACKR3 N127K-YFP; -8.8 with ACKR3 N127S-YFP; -7.4 with ACKR3 R142A-YFP. For the same substance, the Log IC50 in the experiment with ACKR3 Y143A-YFP was -8.5; in the experiment with ACKR3 Y315A-YFP it was -7.7; in [1], -8.2. Besides, the IC50 (as a rule, the concentration that gives 50% inhibition) in the experiment with ACKR3 D90N-YFP is 12.1 nM; in the experiment with ACKR3 N127D-YFP, 10.9 nM; with ACKR3 N127K-YFP, 9.9 nM; with ACKR3 N127S-YFP it was 1.7 nM; with ACKR3 R142A-YFP, 45.1 nM; with ACKR3 Y143A-YFP it was 3 nM. The IC50 stood at 24.7 nM with ACKR3 Y315A-YFP and 5.9 nM in experiment [1].

Turning to “^125I-CXCL12 radiolabel tracer (from UniProt P48061 22-93) (ligand)”, the 125I-CXCL12 tracer binding, % of ACKR3 (the pair that is blocked) in the experiment with ACKR3 D141N-YFP amounted to 64%; with ACKR3 D90N-YFP, 92%; in the experiment with ACKR3 N127D-YFP, 70%; with ACKR3 N127K-YFP, 83%; with ACKR3 N127S-YFP, 87%; with ACKR3 R142A-YFP, 66%. In addition, the 125I-CXCL12 tracer binding, % of ACKR3 (the pair that is blocked) with ACKR3 Y143A-YFP came to 93%; in the experiment with ACKR3 Y315A-YFP, 69%; in [1] it was 100%.
